This passage reports stoichiometry N results from paper PMC9369050.

Where “and” joins values, the source holds several entries; their conditions need not be identical. Equal entries are not always repeated.

In experiment [1] the target is Bacterial His-tagged Reg-1α (human regenerating islet-derived protein 1-alpha) (human) (UniProt P05451). The experiment can be described thus: cross-linking; 10 mM EDC/NHS, up to 30 min (0, 15, 30 min); Reg-1α with inactive calpain-2 at molar ratio 2/1, or Reg-1α alone; 50 mM Hepes pH 7.3, 100 mM NaCl, 1 mM DTT, 1 mM EGTA; SDS-PAGE 4-15% and immunodetection with anti-Reg-1α and anti-calpain-2.

The target is the same in experiment [2]. In words: SDS-PAGE with immunoblot, no cross-linker; bands of oligomers that persist in SDS-PAGE, detected with anti-Reg-1α (Figure 1C; time 0 of Figure 2A). (In general: A western blot detects proteins with antibodies after separation by electrophoresis.)
Experiment [3] addresses Calpain-2-cleaved Reg-1α (Reg-1αΔN1-4) (human). The description is as above.

For orientation: stoichiometry N means the number of molecules, sites or subunits per partner or assembly. Regarding “Bacterial His-tagged Reg-1α (human regenerating islet-derived protein 1-alpha) (from UniProt P05451 23-166) (natural protein)”, the stoichiometry N was 4 in experiment [1]; 2 and 3 in experiment [2]. Turning to “Calpain-2-cleaved Reg-1α (Reg-1αΔN1-4) (domain or fragment)”, the stoichiometry N in experiment [3] was found to be 2.
